Experimental findings from PMC7537338 (2020) are described below.

Experiment [1] has as its target human CD47-IgV-Domain-hIg fusion protein (human, UniProt Q08722 19-141). Description: FACS; competition with human SIRPα on CHO cells.
The target of experiment [2] is T1, mouse CD47-IgV-Domain-hIg fusion protein (mouse, UniProt Q61735 19-140).
T1 chain: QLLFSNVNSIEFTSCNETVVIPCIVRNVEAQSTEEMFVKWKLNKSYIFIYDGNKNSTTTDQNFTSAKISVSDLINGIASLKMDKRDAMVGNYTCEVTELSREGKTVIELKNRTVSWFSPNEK
Description: FACS; competition with mouse SIRPα on CHO cells. (Flow cytometry measures light scatter and fluorescence of single cells or particles in a stream.)

Where no end group is shown, it is not given here.

Chain of human CD47-IgV-Domain-hIg fusion protein (Q08722 19-141): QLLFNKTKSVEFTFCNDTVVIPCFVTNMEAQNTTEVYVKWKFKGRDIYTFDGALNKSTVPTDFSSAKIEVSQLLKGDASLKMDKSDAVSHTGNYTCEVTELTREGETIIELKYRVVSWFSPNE

B1: pep-20-D12 (peptide)
chain: AWSATWSNYWRH
modifications: also: three D-amino acid residues substituted at N- and C-terminal, places not given here
By IC50 is commonly meant the concentration that inhibits the measured activity by half. Read a high IC50 as weaker potency in that assay. As to B1, the IC50 in experiment [1] stood at 12.1 µM; in experiment [2], 18.2 µM.
